Assay: soluble on expression in E. coli; label from the status in PepcDB or PDB records
For “MTDFTTDIAQALVRKEDLKEVFRTHLENAVNTLLATELTAFLDYEKYDRGGFGSGNSRNGTYPRTLHTEFGDLHLSIPRDRNGEFHQQTISPYKRSNDTLESFVIHMYQKGVTTGEITDLLERMYGHHYTPQTISNMTKTMEKQVEAFKARTLAKRYVCVYLDATFIAIKRDTVSKEAVYLAIGIQEDGTKEVLAYTIAPTESALVWKEVLEDLQNRGVEDVLLFVSDGLKGIVDSIQSLFPSSSYQLCCVHLSRNLAHKVRVSDRAEVCGDFKRVYRATSKQEGQKALDDFVTKWKKVYPRATKSLEENPFILTFYDFPQAIWRSIYSTNLIESFNKQLKKYSKRKEQFPNEPSIERFLVSQFEPYNQKFSTRCHLGFDLARAELVSMFERRK”, the “soluble on expression in E. coli” value was “soluble”.
For “MEETKRLQKVYQLFAESTTERIPTDRLVDVLRFAGYIISESYIGELLSSIPGETLDFGQLVDVCERIREREITREELQNSFRRLDVDNTSYIDAGRLVQILSSGENRFSDEEIEELLNILNPDGDGKICYDLVIKNIFGY”, the “soluble on expression in E. coli” value was “not soluble”.
For “MTKNTRFSPEVRQRAVRMVLESQGEYDSQWATICSIAPKIGCTPETLRVWGLRQHERDTGGGDGGLTTAERQRLKEPERENRELRRSNDILRQASAYFAKAEFDRLWKKLEHHHHHH”, the “soluble on expression in E. coli” value was “not soluble”.
For “MSLDETPTIHILWINAGLSCDGDSVALTAAMQPSIEEIVLGVLPGLPKIAVHWPLIDFECGPVGGSDTFIEWFFKGERGEIDPFVLVVEGSIPNESIKPEGYWCGFGDNPETGQPITTSEWIDRLAPKALAVVAIGTCATYGGIHAMAGNPTGAMGVPDYLGWDWKSQAGIPIVCVPGCPIQPDNFSETLTYLLYQAAGAAPMIPLDDKLRPTWLFGATEGHHHHHH”, the “soluble on expression in E. coli” value was “soluble”.
For “MRALPIADDVAGVIFALNGGDLGEDTGCVYYFAPDTLNWESLEVGYSEFLQWALSGDLDTFYENVRWQQWREDVIKLSATEAFTFYPFLWVQSEEARTRKVISLTELWEMQYQMKETFTQLEHHHHHH”, the “soluble on expression in E. coli” value was “not soluble”.
In the case of “SFPNRRIVTTVFNDEGIQFLVTRYIKALNPPQQLLDIFLHNSNATFDLIARFVSLIPFVPNTPDENDGSDIWMTSEHCISLAIGNKEEHAILLCNFFLYFGKKALVLLGTSVLEGHVAYVVTQETNEYLLWNPSTGQCYKQFDPFCPLKSVDCLFDDRNVWFNIQQNNTPMAVFFDYSKESFWKQLLPKNVQGTKIQSIQVTGFPIQMPYIDVQSIIDAVYQTGIHSAEFPQTEFALAVYIHPYPNNILSVWVYLASLVQHQ”, the “soluble on expression in E. coli” value is reported as “soluble”.
With “MAHHHHHHMWSGLKLERLLYTFPETTTPTGWSQSDPLLSSPLGEADANEGDSSAVFGEDVNVEHRHFNNGERRRKLALRPFTVPASAMAEEGGEEGSHVHLGFSFPGEGKFDEEPEAVLWCPQGNCQWLNEESDCSQRSAMSCPARPTKTTIQLGDPGAPIKKNRERKYICNDADENSNSRVGPALYHQLEFFQESNSVSFPCESSALSHITPLDETGESVDLANHMSHLTVAVSPIQKRLLFTGVLDDAVDAPSGRDVGDDKGVGSGLQSLRREKRFLEEMDTNRDAANSNSMACTMPREPHRKFRRIDAGENDRKSLDNHFHSRR” the “soluble on expression in E. coli” value was “not soluble”.
With “MGSDKIHHHHHHMETITIDEKTLYNLTQPSEVIEELTHLNGNLTLVPNILSEDALLNKSVKEIEKIALEEADKTSPKHVRGKKIRRKGYAKYRFLKGFKIMLKGREDIYKLERISVELPVLYSDKGRVKTQVEERLLREEKVFKALMTVYSVLGGKLNAKLWMLEIQASGDFKYVIVDGKYVKLKGGRGSFSAIGVTEEGKRAVLDITLSVEKDVMSYWRLLVEVWKKYSFVLVVVDGTKALDKISLAELQVRRQGCLVHLKRNATKEEREALNVIFSAESGEIKPETCPRLLSYLSTPKELWRWLKSNNLIESFNSLLERRRFGSFHSPWRILQIARTIANNYNLSVVFHQFY” the “soluble on expression in E. coli” value was “not soluble”.
In the case of “MTVESVNPETRAPAAPGAPELREPPVAGGGVPLLGHGWRLARDPLAFMSQLRDHGDVVRIKLGPKTVYAVTNPELTGALALNPDYHIAGPLWESLEGLLGKEGVATANGPLHRRQRRTIQPAFRLDAIPAYGPIMEEEAHALTERWQPGKTVDATSESFRVAVRVAARCLLRGQYMDERAERLCVALATVFRGMYRRMVVPLGPLYRLPLPANRRFNDALADLHLLVDEIIAERRASGQKPDDLLTALLEAKDDNGDPIGEQEIHDQVVAILTPGSETIASTIMWLLQALADHPEHADRIRDEVEAVTGGRPVAFEDVRKLRHTGNVIVEAMRLRPAVWVLTRRAVAESELGGYRIPAGADIIYSPYAIQRDPKSYDDNLEFDPDRWLPERAANVPKYAMKPFSAGKRKCPSDHFSMAQLTLITAALATKYRFEQVAGSNDAVRVGITLRPHDLLVRPVARHHHHHH”, the “soluble on expression in E. coli” value is reported as “soluble”.

Reference: the DeepSol protein solubility set
